Data published in patent US5844093.

Tests used:
[1] = target: EGFR on EGFR-bearing tumor cells (human) (UniProt P00533); assay: flow cytometry, MDA MB 231 cells, crude bacterial supernatant
[2] = target: EGFR on EGFR-bearing tumor cells (human) (UniProt P00533); assay: flow cytometry, A431 cells, crude bacterial supernatant
[3] = target: EGFR on EGFR-bearing tumor cells (human) (UniProt P00533); assay: flow cytometry, HT29 cells, crude bacterial supernatant

mean of arbritary fluorescence units (arbitrary fluorescence units) [1]: 21.3
mean of arbritary fluorescence units (arbitrary fluorescence units) [2]: 85.5
mean of arbritary fluorescence units (arbitrary fluorescence units) [3]: 2.5
Substance: scFv derived from MAb 425
